# Key:
# [1] = target: rabbit skeletal-muscle F-actin (rabbit) (UniProt P68135); assay: co-sedimentation; 0.2-3.5 µM tropomyosin with 3 µM F-actin in T buffer (150 mM NaCl, 10 mM Tris-HCl pH 7.5, 2 mM MgCl2), 50 µL, 1 h at room temperature; 670,000 x g, 20 °C, 30 min; SDS-PAGE densitometry; Hill equation fit; apparent Kd
# [2] = target: α-actin filament (muscle actin, polymerized from G-actin) (UniProt P68135); assay: TIRF microscopy of tropomyosin-decorated single actin filaments; control experiments: the same Tpm isoform labeled with AF488 and with AF568 (0.015 µM of each) mixed with 1 µM G-actin in D buffer, polymerized with 50 mM NaCl for 5-10 min, 10% PEG 300; decorated filaments captured on PLL-PEG/BSA coverslips in microfluidic channels, washed with TIR50 buffer
# [3] = target: β-actin filament (cytoskeletal actin, polymerized from G-actin) (UniProt P60709); assay: as above
# Tpm1.6 (Tm2), unlabeled recombinant human cytoskeletal tropomyosin (natural protein; modification not given), sequence (chain, as listed by the source): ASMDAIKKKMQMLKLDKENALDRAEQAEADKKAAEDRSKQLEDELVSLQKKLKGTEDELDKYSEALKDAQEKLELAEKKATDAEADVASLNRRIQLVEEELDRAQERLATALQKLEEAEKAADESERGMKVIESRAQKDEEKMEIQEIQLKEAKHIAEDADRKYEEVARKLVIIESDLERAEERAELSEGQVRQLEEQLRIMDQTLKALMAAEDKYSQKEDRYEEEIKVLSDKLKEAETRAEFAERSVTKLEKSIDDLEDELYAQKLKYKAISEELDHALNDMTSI
Substance,Kd [1],"ratio of Tpm in Ch1 (red, AF568)/Ch2 (green, AF488) on the filament, median [2]","ratio of Tpm in Ch1 (red, AF568)/Ch2 (green, AF488) on the filament, median [3]"
"Tpm1.1 (αTm), unlabeled recombinant rat skeletal/cardiac muscle tropomyosin (natural protein)",0.64 µM,–,–
Tpm1.1 AF488 (Tpm1.1 labeled at Cys-190 with Alexa Fluor 488 C5 maleimide) (natural protein),0.17 µM,–,–
Tpm1.1 AF568 (Tpm1.1 labeled at Cys-190 with Alexa Fluor 568 C5 maleimide) (natural protein),0.24 µM,0.9,0.9
"Tpm1.6 (Tm2), unlabeled recombinant human cytoskeletal tropomyosin (natural protein; modification not given)",0.44 µM,–,–
